Consider two molecules from article PMC6609874, “MeABL5, an ABA Insensitive 5-Like Basic Leucine Zipper Transcription Factor, Positively Regulates MeCWINV3 in Cassava (Manihot esculenta Crantz)”.

The series has as its target T1, MeABL5 (Manihot esculenta Crantz, UniProt A0A411G151).
T1 sequence: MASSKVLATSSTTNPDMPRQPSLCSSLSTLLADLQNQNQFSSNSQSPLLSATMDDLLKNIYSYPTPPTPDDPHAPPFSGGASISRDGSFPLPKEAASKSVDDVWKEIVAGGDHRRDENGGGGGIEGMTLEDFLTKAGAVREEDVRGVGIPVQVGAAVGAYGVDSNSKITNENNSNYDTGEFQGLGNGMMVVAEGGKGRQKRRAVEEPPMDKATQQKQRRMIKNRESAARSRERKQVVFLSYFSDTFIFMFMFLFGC
The series can be described thus: EMSA; 250 ng protein, 500 ng DNA; EMSA kit (Invitrogen), room temperature 30 min, 500 ng DNA, 0-250 ng protein, PAGE with SYBR Green/SYPRO Ruby stain; buffer, salt and pH not stated. As to conditions: protein: recombinant; tags: MBP (pET28a-MBP) removed by TEV protease; Ni column purified; chain copies: 2; label: none (SYBR Green stain); annealed duplex. For orientation: A gel shift assay detects complexes by their altered migration in electrophoresis.

B1: pMeCWINV3-MT 54 bp (CACGTG deleted) (dsDNA)
DNA 1: ATCGTTGACATGTGAGTATTTGACGTATCGGAAAGGGAAGAAAAACAACATTGA
DNA 2: TCAATGTTGTTTTTCTTCCCTTTCCGATACGTCAAATACTCACATGTCAACGAT
As to B1, the binding result was “no binding”.

B2: pMeCWINV3-WT 60 bp (dsDNA)
DNA 1: ATCGTTGACATGTGAGTATTTGACGTATCCACGTGGGAAAGGGAAGAAAAACAACATTGA
DNA 2: TCAATGTTGTTTTTCTTCCCTTTCCCACGTGGATACGTCAAATACTCACATGTCAACGAT
In the case of B2, the binding result is “binds”.
